Laboratory results from the DeepSol protein solubility set.

Test: soluble on expression in E. coli; label from the status in PepcDB or PDB records
With “MSEESQAFQRQLTALIGYDVTDVSNVHDDELEFTRRGLVTPRMAEVASRDPKLYAMHPWVTSKPLPEYLWKKIANNCIFIVIHRSTTSQTIKVSPDDTPGAILQSFFTKMAKKKSLMDIPESQSEQDFVLRVCGRDEYLVGETPIKNFQWVRHCLKNGEEIHVVLDTPPDPALDEVRKEEWPLVDDCTGVTGYHEQLTIHGKDHESVFTVSLWDCDRKFRVKIRGIDIPVLPRNTDLTVFVEANIQHGQQVLCQRRTSPKPFTEEVLWNVWLEFSIKIKDLPKGALLNLQIYCGKAPALSSKASAESPSSESKGKVQLLYYVNLLLIDHRFLLRRGEYVLHMWQISGKGEDQGSFNADKLTSATNPDKENSMSISILLDNYCHPIALPKHQPTPDPEGDRVRAEMPNQLRKQLEAIIATDPLNPLTAEDKELLWHFRYESLKHPKAYPKLFSSVKWGQQEIVAKTYQLLARREVWDQSALDVGLTMQLLDCNFSDENVRAIAVQKLESLEDDDVLHYLLQLVQAVKFEPYHDSALARFLLKRGLRNKRIGHFLFWFLRSEIAQSRHYQQRFAVILEAYLRGCGTAMLHDFTQQVQVIEMLQKVTLDIKSLSAEKYDVSSQVISQLKQKLENLQNSQLPESFRVPYDPGLKAGALAIEKCKVMASKKKPLWLEFKCADPTALSNETIGIIFKHGDDLRQDMLILQILRIMESIWETESLDLCLLPYGCISTGDKIGMIEIVKDATTIAKIQQSTVGNTGAFKDEVLNHWLKEKSPTEEKFQAAVERFVYSCAGYCVATFVLGIGDRHNDNIMITETGNLFHIDFGHILGNYKSFLGINKERVPFVLTPDFLFVMGTSGKKTSPHFQKFQDICVKAYLALRHHTNLLIILFSMMLMTGMPQLTSKEDIEYIRDALTVGKNEEDAKKYFLDQIEVCRDKGWTVQFNWFLHLVLGIKQGEKHSAHHHHHH” the “soluble on expression in E. coli” value was “soluble”.
With “MSNLVLSLDISTSGTGWALFKGSDLIQSGVLKHKSKSYFERGRYMASQLRLIQSRALKKYDCYFSTIAVEKNSVMGPNQQSMLKIGIVTGIILGRLIADNVVFINVSTWRKYWKFSYKDRSKKSMKLQSKIKVEQEFNKSVKDDEADAILIGSYYVNQGYLDELETHDYY” the “soluble on expression in E. coli” value was “soluble”.
For “MNYTKFDVKNWVRREHFEFYRHRLPCGFSLTSKIDITTLKKSLDDSAYKFYPVMIYLIAQAVNQFDELRMAIKDDELIVWDSVDPCFTVFHQETETFSALSCPYSSDIDQFMVNYLSVMERYKSDTKLFPQGVTPENHLFISALPWVNFDSFNLNVANFTDFFAPVITMAKYQQEGDRLLLPLSVQVHHAVCDGFHVARFINRLQELCNSKLK”, the “soluble on expression in E. coli” value was “soluble”.
In the case of “MSLSERTFNWKNKDIRAQVDVVDSKLLPTLLLRNALVLNPYVKQWLKKNIWIYQDRIVYVGHELPNRAEEIHTIDCEGKYIVPGYIEPHAHPFQIYNPQTLAEYVSQYGTTTFVNDNLFLLLQSGKKKALTILNELKKQPVQYFWWSRYDLQTEVLNEDHVLPFDVRKQWIEHPDVIQGGEMTGWPRLVDGDDLMLHCMQATKKQRKRIEGHFPGASDKTLTKMKLFGADCDHEAMTGDEVMRRLELGYYVSLRNSSIRPDVRKILQELHEKGFRYYDHFFYTTDGATPNFYKGGMTNELIRIALEEGVPAIDAYNMASFNIAKYYQMDDYLGVVGPGRLASLNILEDPLNPNPVTVLSKGTILRENGCDLKAFTKTDWHKGGLVPLELSYDMTMDDLQFSMPMGVKMRNAVIMEPYMIEIDNSMEQLSFDHDESYLTMLDRHGKWRVNTMIKGFASSVQGFVSSFTTTGDIVAIGKNKADMLLAFARMKEIGGGIVLAENGNILHEIPLALCGCASSEAYEDVLEKEQKLRDLLTERGYEFCDPIYTLLFLQSTHLPYIRITPRGIFDVMKKTVLFPSIMREGHHHHHH”, the “soluble on expression in E. coli” value was “not soluble”.
For “MGSDKIHHHHHHMAIEHYWDQALERSTAAQLNGALVPLSTELTRIRARQGEPFELRKLKGHPPSHLLARGPKPNPFLPWDPSLEVSEIGMRHVLILNKYPVQKGHMLLITREWAPQHGWLSYDDWEALLSVDQDTKGLWFFNSSPTAGASQPHRHLQLLRRCDDDRSCPRQEWFQSLVNSSPRESCQLTQCCAATARAQNHDAQIHYQAYLTLCEKIGLGNPAENQHPRQPYNLLLTKEWMALILRSREGIAGFSINALGFAGYLLATETSDLDWLNHHGPEALLEGVVKTIQ”, the “soluble on expression in E. coli” value was “not soluble”.
With “MGSDKIHHHHHHMSLLSDEEVNSLSIQRMIFHVVDPALENPTFLAEVNPPQCVDFFVERVKETLKGSAYEFVPGAGIPNLLHRALPGPDGKDDFITVSHALAERFKDKVKQDKRLAPGVLMLFALKTNGNNQLVAVIKYEHQQVVSYSYVKDTNGSPVLDADGNPVPDLKTLVETFTKDRKAMQKSAVIRFQNINSSGGGTFSSSAVVIDHSSGRYRDATQHFANFLDIRRALKPSELTKRLEDAAVEAIKAHRSEVPTEIAKAPKRHVRTAMSRLDGFDFEKPEEFLGAVLQGVSPDSKILKTFKSKLASKNISTEAFKFEGATPPPAEYRRVVTNEGVTLLFSAGHEEKKNVEIQDEENGGVKITIRTTGLERNDELEKMPRLPD” the “soluble on expression in E. coli” value was “not soluble”.
For “GPGSGPVFVQEPSHVMFPLDSEEKKVKLSCEVKGNPKPHIRWKLNGTDVDIGMDFRYSVVDGSLLINNPNKTQDAGTYQCIATNSFGTIVSREAKLQFAYLENFKTRTRSTVSVRRGQGMVLLCGPPPHSGELSYAWIFNEYPSYQDNRRFVSQETGNLYIAKVEKSDVGNYTCVVTNTVTNHKVLGPPTPLILRNDGVMGEYEPKIEVQFPETVPAEKGTTVKLECFALGNPVPTILWRRADGKPIARKARRHKSNGILEIPNFQQEDAGSYECVAENSRGKNVAKGQLTFYAQPNWVQIINDIHVAMEESVFWECKANGRPKPTYRWLKNGDPLLTRDRIQIEQGTLNITIVNLSDAGMYQCVAENKHGVIFSSAELSVIAE”, the “soluble on expression in E. coli” value was “soluble”.
In the case of “EKRVRRTRSLVEVLNVDPETGDLGINEIFNWYPSEDGFLKVGDSHIMQEIMHVRGWDSGQLRGEMENRRKILTYMYEKNMRSYIQVSLVVQAYQSYPKMVMEAIENNILQGMIQDMVA”, the “soluble on expression in E. coli” value was “not soluble”.
In the case of “MGSDKIHHHHHHMLITAYRERQTRHREKIQRLLNFLKEETYSDFKILMLLFGFRDHKSLYSLLSKVEGMGLIKKHVLVSRTMKISLWGITSDGLAVVLTPDDAIFPARFEPSKITGWTLEHHLDNQVARITLEQKGASGWVNGDRTTFLSRYEVSHRPDGLITLPGGTVIAIETERRLKTKARYQSILASHLLARTRKNWIYVFYIVPDPQKKRGLERLFEGIRHVIINHQHIPLETRHRNVFRIYTLDELQRLNLGHCL”, the “soluble on expression in E. coli” value was “not soluble”.
In the case of “MSEFLTHPFEPFFDKDSKILILGSFPSIKSRQDGFYYQHPRNRFWPILETLFNAKLENITEQQAFLRKKHIALWDVLQSCKIKNSDDKTISYAKANDLNLILSQTKIQAIFTTGQSAYRFFVKFHPRLEAIALPSTSPANLNFSFEQLLQNYEIIKKFTKLEHHHHHH”, the “soluble on expression in E. coli” value was “soluble”.
In the case of “MGSDKIHHHHHHMVKHHCRMVFKFKLGFFTDLHGSEYSFKRSLNIAKSKRVDFLIISGGLIAKEILFVEDIGGRYFLNGKKVNLNNLNEDALRSGKYIVVDKKEVIEDIKSDKSKLEKIVIEKASEQMSRWVKIAEEIFRLEKVFWSPAHGDIPQLDSILKNYGSNLINENVINLEEIQIVSLGFGSPIGNSYREIPDSELYIKGKSLLKDADKERLIMNFHMPPLNTKLDNAKVGLRKSHVGSKAVLDLITEFQPIISLHGHVHESTSMDKVGETIAINPGSLYQLGDPSIVTFEVHKELKSFGSVNVSKYVIKNIEFVSTNPLDVI”, the “soluble on expression in E. coli” value was “not soluble”.
For “MSLTASDQFNSTHSAVDQYAELVLHNGRMYTLDPAQPWADAVAIRQGKLIAVGSLASLASLIGPNTRQHDLDGAFCMPGLHDMHTHPDLALAPRYADDLDVGIEDPTPEQLAAAIHAYADSHPGDGWIYGQYWVRYTFREAGLTPGREWLDSVMPHRPVALLDRMWGTMMVNSKALELAGIDRHTSDPRNGYLERDELTGEPNGLLIDGAYALIHAAMPPTPVSVLRRAYRDGVHFQTSRGVTATKYVHVCENRLQALKELDDAGELTLRVEAAISWQDDIFPVRRRWELLSGERHFYRSARLSANAVKFHFDGTVEPKSSYLLTPWPEESSWRGKLNLTPEHITDMVVDMDKRGLRVIAHCTGDGASDVFLDAVAEARRRNGNSGIRHQCAHSTLLHPGNLKRFQALDVIAEFSPAAWYPTPFASGARSGYGQERLKRIYDFKGVLAAGGIAVFGTDWPVASIDPWLALETMVTRQNPWNQEPDTFGDPISLEQALQVATLNGAHAMGLEHLTGSLEAGKSADLIVLDRDLFAQGARNYIHHTQVQLTFVEGQLVYDRQGTEGHHHHHH”, the “soluble on expression in E. coli” value was “not soluble”.
